Experiments:
[1] = target: T1, IRF8;PU.1 (Mus musculus;Mus musculus, UniProt P23611;P17433 1-424;1-272, |); experiment: EMSA; synergistic; LightShift Chemiluminescent EMSA Kit; buffer, salt and pH not stated; supershift incubation 4 °C, 20 min; settings: protein: recombinant;recombinant; tags: Flag;Flag; copies: 1;1; label: 5'-biotin (both strands)
[2] = target: T1, IRF8;PU.1; experiment: EMSA; synergistic; supershifted by anti-IRF8 and by anti-PU.1, not by control IgG; LightShift Chemiluminescent EMSA Kit; buffer, salt and pH not stated; supershift incubation 4 °C, 20 min; settings: protein: recombinant;recombinant; tags: Flag;Flag; copies: 1;1; label: 5'-biotin (both strands)

T1 sequence (P23611 whole entry, chain 1 of 2, other chains not shown): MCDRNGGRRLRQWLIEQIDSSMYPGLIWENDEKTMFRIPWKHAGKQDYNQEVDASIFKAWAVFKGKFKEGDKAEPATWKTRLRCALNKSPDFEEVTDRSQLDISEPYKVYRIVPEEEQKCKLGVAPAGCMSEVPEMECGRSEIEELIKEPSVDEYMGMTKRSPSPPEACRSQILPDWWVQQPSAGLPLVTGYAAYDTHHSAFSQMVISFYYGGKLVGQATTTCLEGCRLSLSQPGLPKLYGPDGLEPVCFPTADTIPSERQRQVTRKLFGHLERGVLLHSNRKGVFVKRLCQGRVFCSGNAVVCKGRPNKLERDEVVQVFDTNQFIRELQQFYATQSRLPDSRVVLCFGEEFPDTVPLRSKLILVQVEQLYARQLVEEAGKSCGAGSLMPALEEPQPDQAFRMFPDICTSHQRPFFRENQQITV

B1: Nfkb1 probe (dsDNA)
DNA 1: TCCCCCCTGGTTTCCCTTCCTGTAAATACA
DNA 2: TGTATTTACAGGAAGGGAAACCAGGGGGGA
B1: binds [1].

B2: Ripk2 probe (dsDNA)
DNA 1: ACAGTCTTACTTTCACTTCCTGAATTCATT
DNA 2: AATGAATTCAGGAAGTGAAAGTAAGACTGT
B2: binds [2].

B3: Ikbkb probe (dsDNA)
DNA 1: CCGTCCTCAGTTTCACTTCCTGTCAGTGCT
DNA 2: AGCACTGACAGGAAGTGAAACTGAGGACGG
B3: binds [1].

B4: Tak1 probe (dsDNA)
DNA 1: CCTTCCATGGTTTCAGTTCCTCTTAAGGGA
DNA 2: TCCCTTAAGAGGAACTGAAACCATGGAAGG
B4: binds [2].

Reference: publication PMC6340890, “Transcriptional mechanism of IRF8 and PU.1 governs microglial activation in neurodegenerative condition”
